Patent US20230265208A1 (Dana-Farber, published 2023)
Substitutions are numbered along the chain they refer to.

B1: VH1 + VL3 (antibody, V domains shown)
VH: QVQLVQSGAEVKKPGSSVKVSCKASGYAFSNFWMNWVRQAPGQGLEWMGQIYPGDGDTNYNGKFKGRVTITADKSTSTAYMELSSLRSEDTAVYYCARSYYRSAWFAYWGQGTLVTVSS
VL: EIVLTQSPATLSLSPGERATLSCRASQSIGTSIHWYQQKPGQAPRLLIYYASESISGIPARFSGSGSGTDFTLTISSLEPEDFAVYYCQQSNNWPLTFGGGTKVEIK
B2: VH2 + VL3 (antibody, V domains shown)
VH: B1 VH with S16A, I70M, A72R, K74T, A79V
VL: B1 VL
B3: VH1 + VL4 (antibody, V domains shown)
VH: B1 VH
VL: AIQLTQSPSSLSASVGDRVTITCRASQSIGTSIHWYQQKPGKAPKLLIYYASESISGVPSRFSGSGSGTDFTLTISSLQPEDFATYYCQQSNNWPLTFGGGTKVEIK
B4: VH5 + VL2 (antibody, V domains shown)
VH: EVQLVQSGAEVKKPGESLKISCKGSGYAFSNFWMNWVRQMPGKGLEWMGQIYPGDGDTNYNGKFKGQVTISADKSISTAYLQWSSLKASDTAMYYCARSYYRSAWFAYWGQGTLVTVSL
VL: B1 VL with L4M, L13V, D70E, E79Q, P80S
B5: Chimeric IgG (antibody, V domains shown)
VH: QVQLQQSGAELMKPGASVKISCKAIGFTFNYFWIEWVKQRPGHGLEWIGEILPGTGSTNYNEKFKGKAIFTADTSSNTAYMQLRSLTSEDSAVYYCVRYDYTSSMDYWGQGTSVTVSS
VL: DIVLTQSPGSLAVSLGQSVTISCRASESVQYSGTSLMHWYQQKPGQPPKLLIYGASNVETGVPARFSGSGSGTDFSLNIHPVEEDDIAMYFCQQNWKVPWTFGGGTKLEIKR
notes: Chimera of the parental mouse antibody with a human Fc (captured by anti-human Fc); also called chimeric antibody; parent chimeric antibody
B6: VH5 + VL3 (antibody, human IgG1, kappa, V domains shown)
VH: EVQLVQSGAEVKKPGESLKISCKGSGFTFNYFWIEWVRQMPGKGLEWMGEILPGTGSTNYNEKFKGQVTISADKSISTAYLQWSSLKASDTAMYYCARYDYTSSMDYWGQGTLVTVSS
VL: EIVLTQSPATLSLSPGERATLSCRASESVQYSGTSLMHWYQQKPGQAPRLLIYGASNVETGIPARFSGSGSGTDFTLTISSLEPEDFAVYYCQQNWKVPWTFGQGTKVEIKR
notes: Full-length humanized IgG expressed in HEK293 and purified on protein A. Constant regions not specified; also called #23 (inferred from 5x5 numbering)

Legend:
[1] = molecular target: T1, MUC1 on HCT116/MUC1 cells (human, UniProt P15941 24-1255); test: flow cytometry on HCT116/MUC1 cells; antibody at 100 nM
T1 sequence (P15941 24-1097, chain 1 of 2): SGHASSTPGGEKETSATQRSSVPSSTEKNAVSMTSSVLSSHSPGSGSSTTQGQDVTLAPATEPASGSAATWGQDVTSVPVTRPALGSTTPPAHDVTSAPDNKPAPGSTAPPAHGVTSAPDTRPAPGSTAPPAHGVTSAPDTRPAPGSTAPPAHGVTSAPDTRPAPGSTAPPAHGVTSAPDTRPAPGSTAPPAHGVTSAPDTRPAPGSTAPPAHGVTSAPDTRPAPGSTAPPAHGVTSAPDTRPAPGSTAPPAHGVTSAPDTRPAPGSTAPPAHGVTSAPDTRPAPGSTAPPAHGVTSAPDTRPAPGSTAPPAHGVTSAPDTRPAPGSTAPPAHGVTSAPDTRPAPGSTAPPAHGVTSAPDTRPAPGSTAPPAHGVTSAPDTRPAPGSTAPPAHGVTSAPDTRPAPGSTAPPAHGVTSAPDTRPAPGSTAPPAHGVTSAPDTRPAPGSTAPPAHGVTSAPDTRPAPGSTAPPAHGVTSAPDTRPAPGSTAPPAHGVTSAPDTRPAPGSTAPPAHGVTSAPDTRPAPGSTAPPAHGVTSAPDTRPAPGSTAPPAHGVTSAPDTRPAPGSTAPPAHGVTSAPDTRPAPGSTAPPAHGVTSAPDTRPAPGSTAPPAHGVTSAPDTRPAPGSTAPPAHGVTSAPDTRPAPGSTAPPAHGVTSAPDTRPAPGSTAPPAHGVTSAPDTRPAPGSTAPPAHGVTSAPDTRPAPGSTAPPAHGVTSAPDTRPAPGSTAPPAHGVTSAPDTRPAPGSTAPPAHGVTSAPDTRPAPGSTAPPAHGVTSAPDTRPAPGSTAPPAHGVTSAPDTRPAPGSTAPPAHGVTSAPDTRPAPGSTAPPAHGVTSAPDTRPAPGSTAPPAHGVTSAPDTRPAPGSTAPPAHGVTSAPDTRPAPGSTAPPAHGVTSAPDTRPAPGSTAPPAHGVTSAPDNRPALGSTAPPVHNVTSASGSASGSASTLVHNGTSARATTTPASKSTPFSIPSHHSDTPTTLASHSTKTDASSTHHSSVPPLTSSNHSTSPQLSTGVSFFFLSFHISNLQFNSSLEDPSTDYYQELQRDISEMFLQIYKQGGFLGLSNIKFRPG
T1 sequence (P15941 1098-1255, chain 2 of 2): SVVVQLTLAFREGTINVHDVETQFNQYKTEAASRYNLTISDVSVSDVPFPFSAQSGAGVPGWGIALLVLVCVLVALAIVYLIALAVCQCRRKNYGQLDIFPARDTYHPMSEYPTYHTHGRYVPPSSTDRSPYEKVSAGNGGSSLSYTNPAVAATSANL

[2] = molecular target: T1, MUC1 on HCT116/MUC1 cells; test: flow cytometry on HCT116/MUC1 cells; antibody at 0.015242 nM
[3] = molecular target: T1, MUC1 on HCT116/MUC1 cells; test: flow cytometry on HCT116/MUC1 cells; antibody at 11.11111 nM
[4] = molecular target: T1, MUC1 on HCT116/MUC1 cells; test: flow cytometry on HCT116/MUC1 cells; antibody at 0.137174 nM
[5] = molecular target: T1, MUC1 on HCT116/MUC1 cells; test: flow cytometry titration on HCT116/MUC1 cells
Procedure: (§1) FACS titration of humanized antibodies. For affinity ranking of humanized antibodies to HCT116/MUC1 cells (a human colon cancer cell line engineered to express MUC1), the purified antibodies were subject to FACs titration. In brief, HCT116/MUC1 cells were cultured and harvested by centrifugation. About 2.5×10⁵ cells per well were washed with PBS twice and incubated in 200 μl of serial dilutions of antibodies for 30 min at 4° C. After washing with PBS., secondary antibody (3 μg Goat anti-Human IgG(H+L) I Fluor 647) was added to the cells and incubated for 30 min at 4° C. After washing with PBS, cells were analyzed for binding (EC₅₀) by using FACS Calibur (BD Bioscience, San Jose, Calif.) and Flowjo software.
(§2) FACS titration of humanized antibodies. Each of the 7 antibodies was titrated for its binding capacity to HCT116/MUC1 cells at various concentrations and the results are mentioned in Table 8 and with a graphical representation in FIG. 5.

[6] = molecular target: T1, MUC1 on HCT116/MUC1 cells; test: flow cytometry on HCT116/MUC1 cells; antibody at 33.33333 nM
[7] = molecular target: T1, MUC1 on HCT116/MUC1 cells; test: flow cytometry on HCT116/MUC1 cells; antibody at 0.045725 nM
[8] = molecular target: T1, MUC1 on HCT116/MUC1 cells; test: flow cytometry on HCT116/MUC1 cells; antibody at 0.411523 nM
[9] = molecular target: T1, MUC1 on HCT116/MUC1 cells; test: flow cytometry on HCT116/MUC1 cells; antibody at 1.234568 nM
[10] = molecular target: T1, MUC1 on HCT116/MUC1 cells; test: flow cytometry on HCT116/MUC1 cells; antibody at 3.703704 nM
[11] = molecular target: T1, MUC1 on HCT116/MUC1 cells; test: flow cytometry on HCT116/MUC1 cells; antibody at 300 nM
[12] = molecular target: T2, MUC1 on HCT116/MUC1 cells (human, UniProt P15941 24-1255); test: flow cytometry titration on HCT116/MUC1 cells
T2 construct: whole, on cells; Human colon cancer cell line engineered to express MUC1
Procedure: as §1, §2
T2 sequence (P15941 24-1255): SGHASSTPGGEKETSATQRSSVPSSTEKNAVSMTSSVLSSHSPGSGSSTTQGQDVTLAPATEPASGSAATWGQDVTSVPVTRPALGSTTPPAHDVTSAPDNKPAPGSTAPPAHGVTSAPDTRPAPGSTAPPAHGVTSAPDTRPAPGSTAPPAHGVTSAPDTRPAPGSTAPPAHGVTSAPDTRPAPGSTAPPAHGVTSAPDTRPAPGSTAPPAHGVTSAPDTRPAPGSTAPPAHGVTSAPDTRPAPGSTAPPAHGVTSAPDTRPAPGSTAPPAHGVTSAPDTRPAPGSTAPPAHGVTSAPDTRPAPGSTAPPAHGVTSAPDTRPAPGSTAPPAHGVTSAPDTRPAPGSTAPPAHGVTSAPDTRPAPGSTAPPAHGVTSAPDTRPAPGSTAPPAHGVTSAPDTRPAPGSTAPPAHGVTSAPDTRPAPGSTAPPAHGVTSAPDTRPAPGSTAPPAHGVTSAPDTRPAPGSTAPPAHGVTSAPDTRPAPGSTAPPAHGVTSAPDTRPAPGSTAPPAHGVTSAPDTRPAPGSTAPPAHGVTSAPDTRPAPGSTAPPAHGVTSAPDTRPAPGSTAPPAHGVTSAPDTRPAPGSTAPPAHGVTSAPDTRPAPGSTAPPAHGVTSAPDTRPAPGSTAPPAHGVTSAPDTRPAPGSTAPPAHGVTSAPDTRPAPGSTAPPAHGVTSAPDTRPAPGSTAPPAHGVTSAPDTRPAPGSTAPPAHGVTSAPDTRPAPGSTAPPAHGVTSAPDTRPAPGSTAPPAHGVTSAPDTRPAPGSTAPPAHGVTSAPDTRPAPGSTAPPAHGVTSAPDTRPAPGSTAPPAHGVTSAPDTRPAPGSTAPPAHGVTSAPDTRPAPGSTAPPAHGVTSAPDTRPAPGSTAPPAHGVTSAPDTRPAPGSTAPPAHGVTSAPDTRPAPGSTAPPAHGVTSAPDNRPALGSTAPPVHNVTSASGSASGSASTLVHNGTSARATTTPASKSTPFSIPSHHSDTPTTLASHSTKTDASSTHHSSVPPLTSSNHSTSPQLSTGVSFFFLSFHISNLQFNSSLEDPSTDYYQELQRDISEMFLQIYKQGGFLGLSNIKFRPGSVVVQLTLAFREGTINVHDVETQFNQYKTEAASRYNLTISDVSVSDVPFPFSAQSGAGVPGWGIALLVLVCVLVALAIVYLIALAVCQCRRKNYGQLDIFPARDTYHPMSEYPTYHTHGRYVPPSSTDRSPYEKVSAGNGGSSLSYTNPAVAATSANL

| Binder | FACS titration signal [1] | FACS titration signal [2] | FACS titration signal [3] | FACS titration signal [4] | EC50 [5] [nM] | FACS titration signal [6] | FACS titration signal [7] | FACS titration signal [8] | FACS titration signal [9] | FACS titration signal [10] | FACS titration signal [11] | EC50 [12] [nM] |
| --- | --- | --- | --- | --- | --- | --- | --- | --- | --- | --- | --- | --- |
| B1 | 41.7 | 5.76 | 20.2 | 9.47 | 13.2 | 41 | 8.96 | 6.22 | 7.09 | 10.4 | 42 |  |
| B2 | 43.8 | 8.96 | 21.5 | 9.04 | 13.3 | 43 | 5.46 | 6.48 | 10.6 | 13.9 | 44.1 |  |
| B3 | 56.2 | 5.73 | 32.3 | 5.5 | 9.8 | 57.8 | 5.99 | 10.1 | 7.61 | 16.6 | 53.9 |  |
| B4 | 48.9 | 5.88 | 33.4 | 9.2 | 7.69 | 48.1 | 6.76 | 9.71 | 11.8 | 17.3 | 46.3 |  |
| B5 |  |  |  |  |  |  |  |  |  |  |  | 6.08 |
| B6 |  |  |  |  |  |  |  |  |  |  |  | 12.2 |
